The target of data set [1] is TtCarH G192Q variant (Thermus thermophilus) (UniProt Q53W62). Put plainly: native MS; native ion mobility mass spectrometry; G192Q with increasing molar ratios of AdoCbl; monomer to dimer.
Data set [2] has the same target. The data set is described as follows: stopped-flow fluorescence; quenching of protein emission (excitation at 280 nm) after rapid mixing of apo-protein with AdoCbl at saturating concentrations (≥10×); kapp of the second phase against protein concentration, fit linearly; monomer to dimer step taken as rate-limiting.
Data set [3] has the same target. The data set is described as follows: native MS; native ion mobility mass spectrometry; G192Q without AdoCbl; monomer to dimer.
Data set [4] deals with the molecule itself. Put plainly: stopped-flow fluorescence; quenching of protein emission (excitation at 280 nm) after rapid mixing of apo-protein with AdoCbl at saturating concentrations (≥10×); kapp of the second phase against protein concentration, fit linearly; monomer to dimer step taken as rate-limiting.
Data set [5] concerns the molecule itself. Put plainly: native MS; native ion mobility mass spectrometry; WT TtCarH, 10 μM apo-protein, no B12 added; monomer to dimer.
Data set [6] concerns the molecule itself. The data set is described as follows: native MS; native ion mobility mass spectrometry; WT TtCarH, 10 μM apo-protein, with AdoCbl from sub-stoichiometric quantities to a two-fold excess.

The values that follow come from article PMC8221060, “Interplay between chromophore binding and domain assembly by the B12-dependent photoreceptor protein, CarH†” (Chemical Science, 2021).

With “TtCarH G192Q variant (from UniProt Q53W62 1-285) (natural protein)”, the stoichiometry N in data set [1] and in data set [3] was 2 in each case. Besides, the kon in data set [2] amounted to 45100 M⁻¹ s⁻¹.

B1: CarH from Thermus thermophilus (TtCarH), wild type (natural protein)
chain: MTSSGVYTIAEVEAMTGLSAEVLRQWERRYGFPKPRRTPGGHRLYSAEDVEALKTIKRWLEEGATPKAAIRRYLAQEVRPEDLGTGLLEALLRGDLAGAEALFRRGLRFWGPEGVLEHLLLPVLREVGEAWHRGEIGVAEEHLASTFLRARLQELLDLAGFPPGPPVLVTTPPGERHEIGAMLAAYHLRRKGVPALYLGPDTPLPDLRALARRLGAGTVVLSAVLSEPLRALPDGALKDLAPRVFLGGQGAGPEEARRLGAEYMEDLKGLAEALWLPRGPEKEAI
notes: CarH, B12-dependent photoreceptor and transcriptional regulator of Thermus thermophilus; Written as the monomer, which associates with itself to dimers and tetramers; The cofactor (AdoCbl or MeCbl, small molecules) was added or left out as told in each assay; also called WT TtCarH; WT
As for B1, the kon in data set [4] came to 50400 ± 2300 M⁻¹ s⁻¹. For the same molecule, the “stoichiometry N” value amounted to 2 in data set [5] and 4 in data set [6].

For orientation: stoichiometry N means the number of molecules, sites or subunits per partner or assembly. What is called kon is a measure of how fast the partners come together. A lower kon goes with slow association.
